Publication PMC10055104, “Organic Anion Transporting Polypeptide 3A1 (OATP3A1)-Gated Bio-Orthogonal Labeling of Intracellular Proteins” (Molecules, 2023)

T1: OATP3A1 (Homo sapiens, UniProt Q9UIG8)
T1 construct: gene SLCO3A1; full-length transporter overexpressed in HEK-293 cells by recombinant lentivirus
T1 sequence (Q9UIG8 1-710): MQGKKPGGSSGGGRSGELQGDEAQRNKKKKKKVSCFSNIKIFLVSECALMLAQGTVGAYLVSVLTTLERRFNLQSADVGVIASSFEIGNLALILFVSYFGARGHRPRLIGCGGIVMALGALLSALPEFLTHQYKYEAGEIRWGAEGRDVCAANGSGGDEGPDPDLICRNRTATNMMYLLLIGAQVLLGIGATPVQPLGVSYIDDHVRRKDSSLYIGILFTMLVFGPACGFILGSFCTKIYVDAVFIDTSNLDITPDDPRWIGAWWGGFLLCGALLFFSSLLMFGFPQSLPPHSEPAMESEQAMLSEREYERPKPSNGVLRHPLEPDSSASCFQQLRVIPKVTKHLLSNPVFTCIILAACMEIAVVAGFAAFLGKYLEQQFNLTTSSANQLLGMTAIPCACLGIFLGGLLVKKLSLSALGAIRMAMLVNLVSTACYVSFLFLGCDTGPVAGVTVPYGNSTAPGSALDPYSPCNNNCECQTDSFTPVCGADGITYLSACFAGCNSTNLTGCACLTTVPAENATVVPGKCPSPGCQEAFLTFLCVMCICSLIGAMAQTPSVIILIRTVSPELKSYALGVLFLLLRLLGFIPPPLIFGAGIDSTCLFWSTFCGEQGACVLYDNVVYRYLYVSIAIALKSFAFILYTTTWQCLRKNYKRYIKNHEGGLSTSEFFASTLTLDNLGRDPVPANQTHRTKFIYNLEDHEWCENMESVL

B1: OATP3A1 (Homo sapiens) (protein)
chain: T1 sequence (Q9UIG8 1-710)
notes: full-length transporter overexpressed in HEK-293 cells by recombinant lentivirus

Tests used:
OATP3A1 = target: T1, OATP3A1; test: inhibition of CBRD2-BAT and CBRD4-BAT ([…]) uptake, flow cytometry; format: cell-based; conditions: Uptake buffer pH 5.5, 37 °C, 15 min preincubation with inhibitor
[1] = substrate: CCN(CC)c1ccc2cc(/C=C/c3cc[n+](CCCCCC(=O)NCc4ccc(-c5nncnn5)cc4)cc3S(=O)(=O)[O-])c(=O)oc2c1; test: flow cytometry uptake into HEK-293-OATP3A1 cells, normalised to mock cells, Michaelis-Menten fit; format: cell-based, Homo sapiens; conditions: Uptake buffer pH 5.5, 37 °C, 15 min, transport
[2] = substrate: CN(C)c1ccc(/C=C/c2cc[n+](CCCCCC(=O)NCc3ccc(-c4nncnn4)cc3)cc2S(=O)(=O)[O-])cc1; test: as above; format: cell-based, Homo sapiens; conditions: Uptake buffer pH 5.5, 37 °C, 15 min, transport

| Molecule | % decrease of transport at 20 μM (OATP3A1) | Km [1] [µM] | Km [2] [µM] |
| --- | --- | --- | --- |
| CCc1oc2ccccc2c1C(=O)c1cc(Br)c(O)c(Br)c1 [benzbromarone] | ~ 90% | – | – |
| B1 | – | 7.2 | 45 |
